Where no end group is shown, it is not given here. [ ]: non-standard residue; d: D form. The star is where a group is joined. C16 diacid = O=C(O)CCCCCCCCCCCCCCC(=O)*; Aib = CC(C)(N)C(=O)O
T1: human GIP receptor (human, UniProt P48546 22-466)
T1 sequence (looked up): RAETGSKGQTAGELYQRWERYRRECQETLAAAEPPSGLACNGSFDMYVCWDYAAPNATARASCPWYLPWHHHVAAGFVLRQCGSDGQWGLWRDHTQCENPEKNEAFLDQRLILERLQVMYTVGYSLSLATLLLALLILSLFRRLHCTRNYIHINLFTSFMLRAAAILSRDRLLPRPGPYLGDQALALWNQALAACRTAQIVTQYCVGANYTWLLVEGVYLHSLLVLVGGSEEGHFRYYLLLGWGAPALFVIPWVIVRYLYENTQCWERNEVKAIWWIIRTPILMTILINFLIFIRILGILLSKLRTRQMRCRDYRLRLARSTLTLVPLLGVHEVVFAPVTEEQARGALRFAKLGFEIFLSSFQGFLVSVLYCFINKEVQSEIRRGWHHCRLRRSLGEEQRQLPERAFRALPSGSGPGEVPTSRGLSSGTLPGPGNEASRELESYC

B1: AT635 (peptide)
peptide: Ac-EGTFISEYSIAMEKIK(C16 diacid)QQDFVNWLLAQKPSSGAPPPS-OH
SMILES: CC[C@H](C)[C@H](NC(=O)[C@H](CO)NC(=O)[C@H](Cc1ccc(O)cc1)NC(=O)[C@H](CCC(=O)O)NC(=O)[C@H](CO)NC(=O)[C@@H](NC(=O)[C@H](Cc1ccccc1)NC(=O)[C@@H](NC(=O)CNC(=O)[C@H](CCC(=O)O)NC(C)=O)[C@@H](C)O)[C@@H](C)CC)C(=O)N[C@@H](C)C(=O)N[C@@H](CCSC)C(=O)N[C@@H](CCC(=O)O)C(=O)N[C@@H](CCCCN)C(=O)N[C@H](C(=O)N[C@@H](CCCCNC(=O)CCCCCCCCCCCCCCC(=O)O)C(=O)N[C@@H](CCC(N)=O)C(=O)N[C@@H](CCC(N)=O)C(=O)N[C@@H](CC(=O)O)C(=O)N[C@@H](Cc1ccccc1)C(=O)N[C@H](C(=O)N[C@@H](CC(N)=O)C(=O)N[C@@H](Cc1c[nH]c2ccccc12)C(=O)N[C@@H](CC(C)C)C(=O)N[C@@H](CC(C)C)C(=O)N[C@@H](C)C(=O)N[C@@H](CCC(N)=O)C(=O)N[C@@H](CCCCN)C(=O)N1CCC[C@H]1C(=O)N[C@@H](CO)C(=O)N[C@@H](CO)C(=O)NCC(=O)N[C@@H](C)C(=O)N1CCC[C@H]1C(=O)N1CCC[C@H]1C(=O)N1CCC[C@H]1C(=O)N[C@@H](CO)C(=O)O)C(C)C)[C@@H](C)CC
B2: AT637 (peptide)
peptide: [Aib]GTFISDYSIAMDKIK(C16 diacid)QQDFVNWLLAQKPSSGAPPPS-OH
modifications: N-terminus assumed
SMILES: CC[C@H](C)[C@H](NC(=O)[C@H](CO)NC(=O)[C@H](Cc1ccc(O)cc1)NC(=O)[C@H](CC(=O)O)NC(=O)[C@H](CO)NC(=O)[C@@H](NC(=O)[C@H](Cc1ccccc1)NC(=O)[C@@H](NC(=O)CNC(=O)C(C)(C)N)[C@@H](C)O)[C@@H](C)CC)C(=O)N[C@@H](C)C(=O)N[C@@H](CCSC)C(=O)N[C@@H](CC(=O)O)C(=O)N[C@@H](CCCCN)C(=O)N[C@H](C(=O)N[C@@H](CCCCNC(=O)CCCCCCCCCCCCCCC(=O)O)C(=O)N[C@@H](CCC(N)=O)C(=O)N[C@@H](CCC(N)=O)C(=O)N[C@@H](CC(=O)O)C(=O)N[C@@H](Cc1ccccc1)C(=O)N[C@H](C(=O)N[C@@H](CC(N)=O)C(=O)N[C@@H](Cc1c[nH]c2ccccc12)C(=O)N[C@@H](CC(C)C)C(=O)N[C@@H](CC(C)C)C(=O)N[C@@H](C)C(=O)N[C@@H](CCC(N)=O)C(=O)N[C@@H](CCCCN)C(=O)N1CCC[C@H]1C(=O)N[C@@H](CO)C(=O)N[C@@H](CO)C(=O)NCC(=O)N[C@@H](C)C(=O)N1CCC[C@H]1C(=O)N1CCC[C@H]1C(=O)N1CCC[C@H]1C(=O)N[C@@H](CO)C(=O)O)C(C)C)[C@@H](C)CC
B3: AT636 (peptide)
peptide: VGTFISDYSIAMDKIK(C16 diacid)QQDFVNWLLAQKPSSGAPPPS-OH
modifications: N-terminus assumed
SMILES: CC[C@H](C)[C@H](NC(=O)[C@H](CO)NC(=O)[C@H](Cc1ccc(O)cc1)NC(=O)[C@H](CC(=O)O)NC(=O)[C@H](CO)NC(=O)[C@@H](NC(=O)[C@H](Cc1ccccc1)NC(=O)[C@@H](NC(=O)CNC(=O)[C@@H](N)C(C)C)[C@@H](C)O)[C@@H](C)CC)C(=O)N[C@@H](C)C(=O)N[C@@H](CCSC)C(=O)N[C@@H](CC(=O)O)C(=O)N[C@@H](CCCCN)C(=O)N[C@H](C(=O)N[C@@H](CCCCNC(=O)CCCCCCCCCCCCCCC(=O)O)C(=O)N[C@@H](CCC(N)=O)C(=O)N[C@@H](CCC(N)=O)C(=O)N[C@@H](CC(=O)O)C(=O)N[C@@H](Cc1ccccc1)C(=O)N[C@H](C(=O)N[C@@H](CC(N)=O)C(=O)N[C@@H](Cc1c[nH]c2ccccc12)C(=O)N[C@@H](CC(C)C)C(=O)N[C@@H](CC(C)C)C(=O)N[C@@H](C)C(=O)N[C@@H](CCC(N)=O)C(=O)N[C@@H](CCCCN)C(=O)N1CCC[C@H]1C(=O)N[C@@H](CO)C(=O)N[C@@H](CO)C(=O)NCC(=O)N[C@@H](C)C(=O)N1CCC[C@H]1C(=O)N1CCC[C@H]1C(=O)N1CCC[C@H]1C(=O)N[C@@H](CO)C(=O)O)C(C)C)[C@@H](C)CC
B4: AT630 (peptide)
peptide: EGTFISDYSIAMDKIKQQDFVNWLLAQKPSSGAPPPS
HELM: PEPTIDE1{E.G.T.F.I.S.D.Y.S.I.A.M.D.K.I.K.Q.Q.D.F.V.N.W.L.L.A.Q.K.P.S.S.G.A.P.P.P.S}|PEPTIDE2{[O=C(O)CCCCCCCCCCCCCCC(=O)[*:2]].[gGlu]}$PEPTIDE1,PEPTIDE2,16:R3-2:R2$$$V2.0; N-terminus assumed
SMILES: CC[C@H](C)[C@H](NC(=O)[C@H](CO)NC(=O)[C@H](Cc1ccc(O)cc1)NC(=O)[C@H](CC(=O)O)NC(=O)[C@H](CO)NC(=O)[C@@H](NC(=O)[C@H](Cc1ccccc1)NC(=O)[C@@H](NC(=O)CNC(=O)[C@@H](N)CCC(=O)O)[C@@H](C)O)[C@@H](C)CC)C(=O)N[C@@H](C)C(=O)N[C@@H](CCSC)C(=O)N[C@@H](CC(=O)O)C(=O)N[C@@H](CCCCN)C(=O)N[C@H](C(=O)N[C@@H](CCCCNC(=O)CC[C@H](NC(=O)CCCCCCCCCCCCCCC(=O)O)C(=O)O)C(=O)N[C@@H](CCC(N)=O)C(=O)N[C@@H](CCC(N)=O)C(=O)N[C@@H](CC(=O)O)C(=O)N[C@@H](Cc1ccccc1)C(=O)N[C@H](C(=O)N[C@@H](CC(N)=O)C(=O)N[C@@H](Cc1c[nH]c2ccccc12)C(=O)N[C@@H](CC(C)C)C(=O)N[C@@H](CC(C)C)C(=O)N[C@@H](C)C(=O)N[C@@H](CCC(N)=O)C(=O)N[C@@H](CCCCN)C(=O)N1CCC[C@H]1C(=O)N[C@@H](CO)C(=O)N[C@@H](CO)C(=O)NCC(=O)N[C@@H](C)C(=O)N1CCC[C@H]1C(=O)N1CCC[C@H]1C(=O)N1CCC[C@H]1C(=O)N[C@@H](CO)C(=O)O)C(C)C)[C@@H](C)CC
B5: AT633 (peptide)
peptide: Ac-EGTFISDYSIAMDKIK(C16 diacid)QQDFVNWLLAQKPSSGAPPPS-OH
SMILES: CC[C@H](C)[C@H](NC(=O)[C@H](CO)NC(=O)[C@H](Cc1ccc(O)cc1)NC(=O)[C@H](CC(=O)O)NC(=O)[C@H](CO)NC(=O)[C@@H](NC(=O)[C@H](Cc1ccccc1)NC(=O)[C@@H](NC(=O)CNC(=O)[C@H](CCC(=O)O)NC(C)=O)[C@@H](C)O)[C@@H](C)CC)C(=O)N[C@@H](C)C(=O)N[C@@H](CCSC)C(=O)N[C@@H](CC(=O)O)C(=O)N[C@@H](CCCCN)C(=O)N[C@H](C(=O)N[C@@H](CCCCNC(=O)CCCCCCCCCCCCCCC(=O)O)C(=O)N[C@@H](CCC(N)=O)C(=O)N[C@@H](CCC(N)=O)C(=O)N[C@@H](CC(=O)O)C(=O)N[C@@H](Cc1ccccc1)C(=O)N[C@H](C(=O)N[C@@H](CC(N)=O)C(=O)N[C@@H](Cc1c[nH]c2ccccc12)C(=O)N[C@@H](CC(C)C)C(=O)N[C@@H](CC(C)C)C(=O)N[C@@H](C)C(=O)N[C@@H](CCC(N)=O)C(=O)N[C@@H](CCCCN)C(=O)N1CCC[C@H]1C(=O)N[C@@H](CO)C(=O)N[C@@H](CO)C(=O)NCC(=O)N[C@@H](C)C(=O)N1CCC[C@H]1C(=O)N1CCC[C@H]1C(=O)N1CCC[C@H]1C(=O)N[C@@H](CO)C(=O)O)C(C)C)[C@@H](C)CC
B6: AT632 (peptide)
peptide: TFISDYKIAMDKIHQQDFVNWLLAQKPSSGAPPPS
HELM: PEPTIDE1{T.F.I.S.D.Y.K.I.A.M.D.K.I.H.Q.Q.D.F.V.N.W.L.L.A.Q.K.P.S.S.G.A.P.P.P.S}|PEPTIDE2{[O=C(O)CCCCCCCCCCCCCCC(=O)[*:2]].[gGlu]}$PEPTIDE1,PEPTIDE2,7:R3-2:R2$$$V2.0; N-terminus assumed
SMILES: CC[C@H](C)[C@H](NC(=O)[C@H](CCCCNC(=O)CC[C@H](NC(=O)CCCCCCCCCCCCCCC(=O)O)C(=O)O)NC(=O)[C@H](Cc1ccc(O)cc1)NC(=O)[C@H](CC(=O)O)NC(=O)[C@H](CO)NC(=O)[C@@H](NC(=O)[C@H](Cc1ccccc1)NC(=O)[C@@H](N)[C@@H](C)O)[C@@H](C)CC)C(=O)N[C@@H](C)C(=O)N[C@@H](CCSC)C(=O)N[C@@H](CC(=O)O)C(=O)N[C@@H](CCCCN)C(=O)N[C@H](C(=O)N[C@@H](Cc1c[nH]cn1)C(=O)N[C@@H](CCC(N)=O)C(=O)N[C@@H](CCC(N)=O)C(=O)N[C@@H](CC(=O)O)C(=O)N[C@@H](Cc1ccccc1)C(=O)N[C@H](C(=O)N[C@@H](CC(N)=O)C(=O)N[C@@H](Cc1c[nH]c2ccccc12)C(=O)N[C@@H](CC(C)C)C(=O)N[C@@H](CC(C)C)C(=O)N[C@@H](C)C(=O)N[C@@H](CCC(N)=O)C(=O)N[C@@H](CCCCN)C(=O)N1CCC[C@H]1C(=O)N[C@@H](CO)C(=O)N[C@@H](CO)C(=O)NCC(=O)N[C@@H](C)C(=O)N1CCC[C@H]1C(=O)N1CCC[C@H]1C(=O)N1CCC[C@H]1C(=O)N[C@@H](CO)C(=O)O)C(C)C)[C@@H](C)CC

Molecular target: T1, human GIP receptor
Experiment: cell-based or functional assay

For B1, which “cAMP agonism % Emax” value is on record?
The value was 5%.

What about the “cAMP antagonism” value of the same binder?
The value was 1.12 nM.

What about the “cAMP antagonism % inhib” value of the same binder?
The value was 87%.

And the “cAMP antagonism pIC50” value?
Its value is 9.

B2 was tested. Which “cAMP agonism % Emax” value did it give?
Its value is 0%.

What about the “cAMP antagonism” value of the same binder?
The value was 2.23 nM.

What about the “cAMP antagonism % inhib” value of the same binder?
The value was 89%.

And the “cAMP antagonism pIC50” value?
Its value is 8.7.

What does the source list for B3?
cAMP agonism % Emax: 0%; cAMP antagonism: 1.71 nM; cAMP antagonism % inhib: 87%; cAMP antagonism pIC50: 8.8

Which “cAMP agonism % Emax” value does the source give for B4 here?
The value was 0%.

What about the “cAMP antagonism” value of the same binder?
The value was 11.2 nM.

What about the “cAMP antagonism % inhib” value of the same binder?
Its value is 85%.

What about the “cAMP antagonism pIC50” value of the same binder?
Its value is 8.

Which “cAMP agonism % Emax” value does the source give for B5 here?
The value was 23%.

What about the “cAMP antagonism pIC50” value of the same binder?
Its value is about 8.8.

With B6 as the binder, how does the “cAMP agonism % Emax” value read?
The value was 0%.

What about the “cAMP antagonism” value of the same binder?
Its value is 8.41 nM.

What about the “cAMP antagonism % inhib” value of the same binder?
The value was 100%.

And the “cAMP antagonism pIC50” value?
Its value is 8.1.

— patent publication US20220298218A1 (ANTAG THERAPEUTICS, published 2022)
